This is an account of results in patent US10323078B2, “Isolated peptides and fragments thereof from fibrinogen for use as drugs, particularly in skin inflammatory diseases” (Universite Paris Descartes, priority 2015, dated 2019).

The subject of one assay is NHDK cells. Put plainly: IL-8 production by keratinocytes stimulated by peptidoglycanne (PGN). The assay is classed as cell-based, human. The note with it: NHDK pre-treated 24 h with 1.75 to 7 μM, then PGN 10 μg/ml. The method, then: FIG. 19: Dose-dependent inhibition of IL-8 production by keratinocyte pre-treated by small Fg1-generated peptides and stimulated by peptidoglycanne (PGN). NHDK cell were incubated for 24 h with recombinant peptide Fg1 (light gray bar) and Fg2 (dark gray bar) at concentrations ranging from 1.75 to 7 μM. Measurement of IL-8 production was realized by ELISA as described in Materials and Methods. Controls experiments were done with unstimulated NHDK cell (white bar) and HDF stimulated with PGN at 10 μg/ml (black bar). Data are means±S.D. of three separate experiments. Statistical significance is indicated by * (P<0.05), ** (P<0.01), *** (P<0.001), and **** (P<0.0001), respectively. […]
Human IL-1ß, IL-8, IL-12, hBD-2, and TNF-α protein concentration was measured in the supernatants of stimulated cells using various ELISA Set kits (Ready-Set-Go kit from eBioscience for acne experiments, and for psoriasis experiments the Duo set IL-8 kit from R&D Systems and the BD-2 Human Development (hBD-2) from Peprotech) according to the manufacturer's instructions. […] The optical density was determined at 450 nm at a wavelength correction of 540 nm.
The production of IL-8 was also measured NHDK cells stimulated by LTA, LPS and PGN, in presence or not of Fg1 or Fg2. […]

The test system of a further assay is P. acnes RON strain. In words: Adhesion assay, biotinylated P. acnes binding to monocytes (ThP1). In kind it is cell-based, Propionibacterium acnes. The settings on record: monocytes (THP-1); bacteria pretreated 0.87 to 7 μM, 1 h at 37° C. The method, then:
FIG. 13: Dose-dependent inhibition of P. acnes RON binding to monocytes cell line. Biotinylated P. acnes RON strain at concentrations adjusted to 0.1 of absorbance at 600 nm was pre-treated with the recombinant peptides Fg1 and Fg2 and incubated 1 h at 37° C. with the human immortalized monocytes cell line ThP1. After removal of unbound bacteria, adhesion activity was detected at 410 nm. Data are means±S.D. of three separate experiments. Statistical significance is indicated by * (P<0.05), ** (P<0.01), *** (P<0.001), and **** (P<0.0001), respectively.
The bacterial suspension was adjusted at 600 nm to the desired concentration, pretreated with peptides Fg1 and Fg2 at the final concentration ranging from 0.87 to 7 μM for 1 h at 37° C. and deposited on the previously saturated cells with a solution of PBS SVF 2% for 2 h. After incubation for 1 h at 37° C., unbound bacteria are removed by 3 washes with PBS and fixed bacteria are detected by a streptavidin-peroxidase solution of 0.5 μg/ml for 30 min.
Whole P. acnes bacteria are labelled by biotinylation, pre-treated or not with the peptides and contacted with the various cell lines. After removal of the unfixed bacteria, the adhesion activity was measured spectrophotometrically by using the streptavidin-peroxidase conjugate and a chromogenic substrate. […]

B1: MKRMVSWSFHKLKTMKHLLLLLLCVFLVKSQGVNDNEEGFFSARGHRPLDKKREEAPSLRPAPPPISGGGYRARPAKAAATQKKVERKAPDAGGCLHADPDLGVLC (protein)
chain: MKRMVSWSFHKLKTMKHLLLLLLCVFLVKSQGVNDNEEGFFSARGHRPLDKKREEAPSLRPAPPPISGGGRARPAKAAATQKKVERKAPDAGGCLHADPDLGVLCMKRMVSWSFHKLKTMKHLLLLLLCVFLVKSQGVNDNEEGFFSARGHRPLDKKREEAPSLRPAPPPISGGGYRARPAKAAATQKKVERKAPDAGGCLHADPDLGVLC
modifications: GST fusion; fragment Fg1
notes: fragment of Bß chain of human fibrinogen having 106 amino acids; recombinant GST-fused peptide expressed in E. coli
In the case of B1, in the assay on NHDK cells, the “Decrease of IL-8 production by PGN-stimulated cells” value was “significantly decreases production of IL-8”. In the assay on P. acnes RON strain, the “Inhibition of adhesion of P. acnes RON strain” value is “inhibits the adhesion of RON strain in a dose-dependent manner”.
